These results are taken from patent US20040146519A1.

The target of one assay is HLA-B*0702 (human). Nature of the assay: inhibition of 125I probe peptide, purified HLA. The following applies: remark: other sources report otherwise.
The next assay has as its target HLA-B*5301 (human). Description: inhibition of 125I probe peptide, purified HLA. The following applies: remark: other sources report otherwise.
For another assay, the target named is T1, HLA-DRB1*1302 (human).
T1 chain 1: not shown
T1 chain 2: not shown
Nature of the assay: competition with 125I probe peptide, purified HLA. The following applies: remark: other sources report otherwise.

In another assay the target is T2, HLA-DRB1*1501 (human).
T2 chain 1: not shown
T2 chain 2: not shown
Description: competition with 125I probe peptide, purified HLA. The following applies: remark: other sources report otherwise.

The next assay has as its target HLA-A*3101 (human). Nature of the assay: competition with 125I probe peptide for purified HLA. The following applies: remark: other sources report otherwise.
For assay [1], the target named is HLA-A*0206 (human). Nature of the assay: inhibition of 125I probe peptide, purified HLA. The following applies: remark: other sources report otherwise.
A further assay has as its target HLA-B*5101 (human). Nature of the assay: inhibition of 125I probe peptide, purified HLA. The following applies: remark: other sources report otherwise.
The target in another assay is HLA-B*5401 (human). Description: inhibition of 125I probe peptide, purified HLA. The following applies: remark: other sources report otherwise.
A further assay deals with HLA-A*0201 (human). Nature of the assay: competitive inhibition of 125I probe peptide, purified HLA.
The target in assay [2] is HLA-A*0206 (human). Nature of the assay: competition with 125I probe peptide for purified HLA. The following applies: remark: other sources report otherwise.

What is called IC50 is the concentration that inhibits the measured activity by half. Higher therefore signals weaker potency.

On to LPQHLFGYSI [CEA.58.I10], for which the IC50 in the assay with HLA-B*0702 (human) was 212 nM; with HLA-B*5301 (human), 930 nM.

Consider RWCIPWQRLLLTASL [CEA.10], for which the IC50 stood at 318 nM with HLA-DRB1*1302 (human) and 827 nM with HLA-DRB1*1501 (human). On to RTLTLFNVTR [CEA.554], for which the IC50 with HLA-A*3101 (human) was 5 nM. As for YLSGANLNV [CEA.605.V9], in the assay with HLA-A*0206 (human) [1], the IC50 amounted to 80 nM. With IPWQRLLLTI [CEA.13.I10], the IC50 in the assay with HLA-B*0702 (human) is 39 nM; with HLA-B*5101 (human) it was 19 nM; with HLA-B*5401 (human) it was 270 nM. With RTLTLLSVTR [CEA.376], the IC50 with HLA-A*3101 (human) worked out at 6.2 nM. YPNASLLI [CEA.102]: the IC50 in the assay with HLA-B*5301 (human) was 40 nM; with HLA-B*5401 (human), 137 nM. On to SLLTFWNPPT [CEA peptide, position 23, 10 amino acids], for which the relative binding ratio (IC50 standard/IC50 peptide) in the assay with HLA-A*0201 (human) was 0.0022. In the assay with HLA-A*3101 (human), RVLTLFNVTR [CEA.554.V2] showed an IC50 of 9 nM. That is a single-digit nanomolar value. As to YLSGANLNV [CEA.605V9], in the assay with HLA-A*0206 (human) [2], the IC50 came to 80 nM. IPWQRLLLTA [CEA.13, 10 AA]: the IC50 in the assay with HLA-B*5401 (human) is 3.2 nM.
